Among the data in patent EP4700044A1, “PROTEIN ANALOGUE AND USE THEREOF” (Shanghai Duomirui Biotechnology., Ltd., priority 2023, dated 2024) are EC50(nM), dual-luciferase reporter gene assay, iLite FGF21 assay ready cells values, retold here.

B1: Human mature FGF21 mutant RGE (FGF21RGE), Q9NSA1 29-209 (ligand)
chain: HPIPDSSPLLQFGGQVRQRYLYTDDAQQTEAHLEIREDGTVGGAADQSPESLLQLKALKPGVIQILGVKTSRFLCQRPDGALYGSLHFDPEACSFRERLLEDGYNVYQSEAHGLPLHLPGNKSPHRDPAPRGPARFLPLPGLPPAPPEPPGILAPQPPDVGSSDPLSMVGGSQGRSPSYES
B2: Compound 5.7, Q9NSA1 29-209 (ligand)
chain: B1 chain with D46C
modifications: here or on the partner: Cys 46 (D46C) carries the albumin-binding agent of Example 2.2, C18 Dicarboxylic Acid-gGlu-AEEA-AEEA-Lys(bromoacetyl)-COOH (bromine displaced by the thiol)
B3: Compound 5.5, Q9NSA1 29-209 (ligand)
chain: B1 chain with H125C
modifications: here or on the partner: Cys 125 (H125C) carries the albumin-binding agent of Example 2.1, C18 Dicarboxylic Acid-AEEA-gGlu-gGlu-Lys(bromoacetyl)-COOH (bromine displaced by the thiol)
B4: Compound 5.3, Q9NSA1 29-209 (ligand)
chain: B1 chain with D46C
modifications: here or on the partner: Cys 46 (D46C) carries the albumin-binding agent of Example 2.1, C18 Dicarboxylic Acid-AEEA-gGlu-gGlu-Lys(bromoacetyl)-COOH (bromine displaced by the thiol)
B5: Human mature FGF21 mutant E30C (FGF21E30C), Q9NSA1 29-209 (ligand)
chain: B1 chain with E30C
B6: Compound 5.12, Q9NSA1 29-209 (ligand)
chain: B1 chain with H125C
modifications: here or on the partner: Cys 125 (H125C) carries the albumin-binding agent of Example 2.3, C20 Dicarboxylic Acid-AEEA-gGlu-gGlu-Lys(bromoacetyl)-COOH (bromine displaced by the thiol)
B7: Compound 5.13, Q9NSA1 29-209 (ligand)
chain: B1 chain with D46C
modifications: here or on the partner: Cys 46 (D46C) carries the albumin-binding agent of Example 2.4, C20 Dicarboxylic Acid-gGlu-AEEA-AEEA-Lys(bromoacetyl)-COOH (bromine displaced by the thiol)
B8: Human mature FGF21 mutant D38C (FGF21D38C), Q9NSA1 29-209 (ligand)
chain: B1 chain with D38C
B9: Compound 5.2, Q9NSA1 29-209 (ligand)
chain: B1 chain with D38C
modifications: here or on the partner: Cys 38 (D38C) carries the albumin-binding agent of Example 2.1, C18 Dicarboxylic Acid-AEEA-gGlu-gGlu-Lys(bromoacetyl)-COOH (bromine displaced by the thiol)
B10: Compound 5.8, Q9NSA1 29-209 (ligand)
chain: B1 chain with K122C
modifications: here or on the partner: Cys 122 (K122C) carries the albumin-binding agent of Example 2.2, C18 Dicarboxylic Acid-gGlu-AEEA-AEEA-Lys(bromoacetyl)-COOH (bromine displaced by the thiol)
B11: Compound 5.1, Q9NSA1 29-209 (ligand)
chain: B1 chain with E30C
modifications: here or on the partner: Cys 30 (E30C) carries the albumin-binding agent of Example 2.1, C18 Dicarboxylic Acid-AEEA-gGlu-gGlu-Lys(bromoacetyl)-COOH (bromine displaced by the thiol)
B12: Human mature FGF21 mutant D46C (FGF21D46C), Q9NSA1 29-209 (ligand)
chain: B1 chain with D46C
B13: Compound 5.14, Q9NSA1 29-209 (ligand)
chain: B1 chain with K122C
modifications: here or on the partner: Cys 122 (K122C) carries the albumin-binding agent of Example 2.4, C20 Dicarboxylic Acid-gGlu-AEEA-AEEA-Lys(bromoacetyl)-COOH (bromine displaced by the thiol)
B14: Compound 5.11, Q9NSA1 29-209 (ligand)
chain: B1 chain with K122C
modifications: here or on the partner: Cys 122 (K122C) carries the albumin-binding agent of Example 2.3, C20 Dicarboxylic Acid-AEEA-gGlu-gGlu-Lys(bromoacetyl)-COOH (bromine displaced by the thiol)
B15: Human mature FGF21 mutant H125C (FGF21H125C), Q9NSA1 29-209 (ligand)
chain: B1 chain with H125C
B16: Human mature FGF21 mutant K122C (FGF21K122C), Q9NSA1 29-209 (ligand)
chain: B1 chain with K122C
B17: Compound 5.10, Q9NSA1 29-209 (ligand)
chain: B1 chain with D46C
modifications: here or on the partner: Cys 46 (D46C) carries the albumin-binding agent of Example 2.3, C20 Dicarboxylic Acid-AEEA-gGlu-gGlu-Lys(bromoacetyl)-COOH (bromine displaced by the thiol)
B18: Compound 5.4, Q9NSA1 29-209 (ligand)
chain: B1 chain with K122C
modifications: here or on the partner: Cys 122 (K122C) carries the albumin-binding agent of Example 2.1, C18 Dicarboxylic Acid-AEEA-gGlu-gGlu-Lys(bromoacetyl)-COOH (bromine displaced by the thiol)
B19: Compound 5.9, Q9NSA1 29-209 (ligand)
chain: B1 chain with H125C
modifications: here or on the partner: Cys 125 (H125C) carries the albumin-binding agent of Example 2.2, C18 Dicarboxylic Acid-gGlu-AEEA-AEEA-Lys(bromoacetyl)-COOH (bromine displaced by the thiol)
B20: Compound 5.6, Q9NSA1 29-209 (ligand)
chain: B1 chain with D38C
modifications: here or on the partner: Cys 38 (D38C) carries the albumin-binding agent of Example 2.2, C18 Dicarboxylic Acid-gGlu-AEEA-AEEA-Lys(bromoacetyl)-COOH (bromine displaced by the thiol)
B21: Compound 5.15, Q9NSA1 29-209 (ligand)
chain: B1 chain with H125C
modifications: here or on the partner: Cys 125 (H125C) carries the albumin-binding agent of Example 2.4, C20 Dicarboxylic Acid-gGlu-AEEA-AEEA-Lys(bromoacetyl)-COOH (bromine displaced by the thiol)

Changes are numbered by the printed parent chain. In names and notes the source's numbering stands.

Chain of FGFR1c, P11362 (P11362 22-822): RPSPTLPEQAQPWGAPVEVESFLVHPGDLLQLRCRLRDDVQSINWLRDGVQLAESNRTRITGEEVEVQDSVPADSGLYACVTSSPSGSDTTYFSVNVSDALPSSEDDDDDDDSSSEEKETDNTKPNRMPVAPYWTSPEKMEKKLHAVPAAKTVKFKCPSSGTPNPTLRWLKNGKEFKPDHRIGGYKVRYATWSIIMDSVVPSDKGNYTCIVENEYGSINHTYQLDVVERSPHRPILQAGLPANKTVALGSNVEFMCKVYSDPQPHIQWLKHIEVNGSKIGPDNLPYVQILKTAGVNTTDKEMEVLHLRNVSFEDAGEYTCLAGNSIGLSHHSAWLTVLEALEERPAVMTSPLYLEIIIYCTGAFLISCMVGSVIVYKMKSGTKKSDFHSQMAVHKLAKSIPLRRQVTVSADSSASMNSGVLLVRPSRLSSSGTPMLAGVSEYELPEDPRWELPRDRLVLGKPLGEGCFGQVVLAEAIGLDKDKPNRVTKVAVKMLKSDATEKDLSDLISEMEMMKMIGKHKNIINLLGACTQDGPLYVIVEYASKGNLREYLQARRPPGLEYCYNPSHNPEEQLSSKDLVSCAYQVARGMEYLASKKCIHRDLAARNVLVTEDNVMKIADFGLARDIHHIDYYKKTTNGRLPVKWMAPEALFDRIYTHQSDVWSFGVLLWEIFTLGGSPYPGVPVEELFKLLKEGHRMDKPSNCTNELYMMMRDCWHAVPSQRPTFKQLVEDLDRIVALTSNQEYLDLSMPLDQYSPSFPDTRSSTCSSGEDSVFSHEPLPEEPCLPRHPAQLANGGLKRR

The assay addresses FGFR1c, P11362. The experiment in a line: cell-based or functional assay.
In turn, B1 had an EC50(nM), dual-luciferase reporter gene assay, iLite FGF21 assay ready cells of 0.25 nM.
B2 showed an EC50(nM), dual-luciferase reporter gene assay, iLite FGF21 assay ready cells of 1.06 nM.
To B3 belongs 0.52 nM; to B4, 0.24 nM; to B5, 1.31 nM.
For B6 the value was 1.4 nM.
For B7 the value was 1.84 nM; for B8, 1 nM.
Molecule B9 yielded an EC50(nM), dual-luciferase reporter gene assay, iLite FGF21 assay ready cells of 1.99 nM.
B10: the EC50(nM), dual-luciferase reporter gene assay, iLite FGF21 assay ready cells came out at 1.13 nM.
To B11 belongs 4.61 nM; to B12, 0.28 nM.
For B13 the value was 1.02 nM; for B14, 2.09 nM.
For B15 the value was 0.28 nM; for B16, 0.3 nM; for B17, 2.69 nM.
In the case of B18, the EC50(nM), dual-luciferase reporter gene assay, iLite FGF21 assay ready cells was determined as 0.99 nM.
B19 returned an EC50(nM), dual-luciferase reporter gene assay, iLite FGF21 assay ready cells of 1.18 nM.
To B20 belongs 2.06 nM; to B21, 0.47 nM.
